In the RNAGym collection of RNA variant scans (doi:10.1073/pnas.2313332121):
This sample holds only a part of the variants without activity.

B1: TPR 5TU (parent)
chain: GGAUCUUCUCGAUCUAACAAAAAAGACAAAUCUGCCACAAAGCUUGAGAGCAUCUUCGGAUGCAGAGGCGGCAGCCUUCGGUGGCGCGAUAGCGCCAACGUUCUCAACUAUGACACGCAAAACGCGUGCUCCGUUGAAUGGAGUUUAUCAUG

Variants of: B1
Assay: polymerase ribozyme fitness, log enrichment relative to wild type (log ratio); higher = more active; in vitro selection for triplet polymerase activity
In short: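 Fitness compares each genotype's enrichment to that of the wild type on a logarithmic scale, averaging replicates with inverse-variance weights. The logarithm is base 2. Enrichment came from Illumina sequencing of input and output libraries after one triplicate round of in vitro selection, which included frozen incubation at −7 °C, of PCR-built, transcribed mutant libraries of each subunit of a heterodimeric triplet polymerase ribozyme. Only genotypes with ≥10 input reads and ≥1 read per output were kept.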

Variant	polymerase ribozyme fitness (log ratio)
U13A C32G A37U A52G G94A G128A U146G	≤ -4.2
A12U	-0.161
A12U A17G C35A U44A A47C A52U C95U G152U	≤ -4.2
U13A A52G G68C G80A U82G C95G C105U C114A U145G	≤ -4.2
A12U A49C G100U U146G	≤ -4.2
U13C C35G C36G U55G G86U	-4.16
U13A A39U C54G C79U G81U G94U U139C G140U	≤ -4.2
U13G A19G G25C C79A C131G U145G	≤ -4.2
A12G U56A C76A G143U	-3.46
U13C G58C G67A G94C	≤ -4.2
A12U C85G C123U U127A	≤ -4.2
A12G C96A U134C A138G G141C	-3.97
A12G U53G G59A C95G A98C U146A	-1.26
U13A U135A	-0.229
A12U A39U A150C	≤ -4.2
A12G G58A A91U U109G	-3.78
U13C A39C U56A C95U G124A	-3.63
A12U A17G C57A A98U	-0.729
U13C U104G	-1.57
A12G U56A A60U G65U A91U C96G A120U	≤ -4.2
U13G A40C C96G A119G	-1.98

Variant	polymerase ribozyme fitness (log ratio)
A12G C99G	-0.551
A12U C35A U44A G92C U127A C129G G143A U151C	≤ -4.2
A12U U15C A49C G88C C123U G143C	≤ -4.2
U13A C51U C54A G86U C116U A120G	≤ -4.2
A12U C35G A60C U61A C76A G124U	≤ -4.2
A12U C54A C95U	-1.84
U13C C93G C99A U127C	≤ -4.2
A12G U45G C69G A91C A115G G133A G143U	≤ -4.2
U13C A16G C18A C35A C87U	≤ -4.2
A12U A19C C95U C105A	-1.03
A12U A19C U44G U148C	≤ -4.2
U13C C14G A66G A73G C95U A110G	≤ -4.2
A12U A20U G81A C87A C96A U102C C125U	≤ -4.2
A12G U45A A52U C93A C118A A120U U145G	≤ -4.2
U13G A28U A64C G68A C79U	≤ -4.2
A12U A97U	-0.954
U13C A52G U102C C118G	-3.18
U13A A19U A37C U45A A49C C51U C76U G94A G133U U134A G140U U148A	≤ -4.2
A12U C51U	-2.53
A12U C76G C85U C103A G126C U145G	≤ -4.2
U13C G58A G88U U90A U102G	≤ -4.2

Variant	polymerase ribozyme fitness (log ratio)
U13G A26G U31G C51G G88C	≤ -4.2
U13G A21U C32G A73U U78A C87A C118A	≤ -4.2
A12U C36G G86A A110C U139A	-4.11
U13A G50A U55A A89C	-3.57
U13C U33A C54A C95G A98C C99A A150G	≤ -4.2
U13G A17G C96A G143C	-4.19
A12G U13C C96A	-0.909
U13A C32U G67C C85A C105U G140A	≤ -4.2
A12G G58U C116U A150G	-1.58
A12U G42A C85U C99G	≤ -4.2
U13C A91U A120U	-3.86
U13A A30U U33G G46A G86A A91U A119G	≤ -4.2
U13C G94C	-0.0586
U13C G94A	-0.431
A12U G50U C72U G126A	-1.33
A12U A17U A22C G34C U55A U56A C57U A64C C95U	≤ -4.2
U13A G58A C87U C105A C108U G124A U145A	≤ -4.2
A12U A16C A28G C38U A41U G86A A150G	≤ -4.2
A12U C93U	-1.13
A12U C93A	-1.26
A12U C87A U90C A113G C131U	≤ -4.2

Variant	polymerase ribozyme fitness (log ratio)
A12U A52C G84A A98G	-2.65
U13C U61G G84A A91G	-3.86
U13A A20G A28G G48A U146C	≤ -4.2
A12G G141C	-0.0174
A12U A23G C87U	-3.67
U13C C51A G83C A89G C125U	≤ -4.2
A12U C85A U139G	-0.992
A12G G59A G94C	-0.564
U13A G48U U56A G84A	-1.28
A12U U82G	-1.49
A12G U77A C96A A98G	≤ -4.2
A12G U53A G68A A107U	≤ -4.2
A12U C85A	-1.85
A12U C85G	-1.91
A12U C85U	-0.742
U13C G58U G94U C95U A142G U144G	-4.05
A12U G58U G83A C93A	≤ -4.2
A12U G25U A37G A47C U77A C95G G141A	≤ -4.2
A12G U77C	-3.98
U13C U44A U56A C79U C93G C95U A115C G141U	≤ -4.2
A12U C35U A91G	-3.67
